Assay [1] addresses muscle actin (UniProt P68135). As to the kind of experiment: seeded actin assembly kinetics.
For assay [2], the target named is muscle actin (UniProt P68135). Description: apparent critical concentration for actin polymerization at steady state.

A word on the koff: it is the first-order rate constant of dissociation. A high value points to a short-lived complex.

Some results are limits rather than exact numbers.

In the assay with muscle actin [1], “Cap1 C-30, synthetic peptide corresponding to the Cap1 COOH-terminal 30 residues, 239–268 (from UniProt P28495 239-268)” yielded a Kd of capping (barbed end; fit with capping and monomer binding) of 1710 nM; a Kd of monomer binding (fit with capping and monomer binding) of 2860 nM; a k+2 of capping (barbed end; fit with capping and monomer binding) of 2100 M⁻¹ s⁻¹.
As to “Cap1Δ(239–268)/Cap2 (from UniProt P28495 1-238; P13517 1-287) (complex)”, the Kd with muscle actin [2] is greater than 50000 nM. Besides, in the assay with muscle actin [1], the Kd is 10300 nM and the koff worked out at 0.00233 s⁻¹.
